Assay results from the DeepSol protein solubility set.

Assay: soluble on expression in E. coli; label from the status in PepcDB or PDB records

Sequence | soluble on expression in E. coli
MQNSLLTQHIAQIIAAEISSQPTQARAAIALLDEGASVPFIARYRKEATGGLDDTQLRILETRLTYLRELEERRSTILTSITEQGKLNDLLHAEILAADTKSRLEDLYLPYKPKRRTRAQIAREAGLEPLADSLLADPTLIPETVAANFVDPEKGITDIKTALEGARAILIERWGEDAALIGELRQWLANNGVIHARLIDNKEDTGAKYRDYFNHTELLSKIPSHRLLALFRARSEEILHLDLDPGNDADAGHQYCESMVMQAACVADQGRPADTWLMTACRLTWRAKLHMHLMLDLFNQAREKAEAEAITVFSNNLKDLLLAAPAGPRIVLGIDPGIRTGCKIAIVDTTGKLIATETIYPHEPRREWDKSLHTLKTLCTQHHITLIAIGNGTASRETDKLVSDLIKAHPALELQKIVVSESGASVYSASESAAKEFPDLDVSLRGAVSIARRLQDPLAELVKIDPKAIGVGQYQHDVDQFHLAKALDARVEDCVNAVGVYVNTASAALLSRVSGLSASVAENITRYRDEHGSFKQRQDLLKVPRLGAKTFEQCAGFLRIADGNQPLDASAVHPEAYPVVERIVQTTGKPIKALIGDSHTLRMLKPEQFTDTNFGIPTIRDIIKELEKPGRDPRPEFKAVRFTEGVENIKDLKPGMILEGVVSNVAAFGAFVDIGVHQDGLIHISALADRFVKDPRDIVKAGDIVKVKVLEIDVPRKRIALTCRLHEETPPETPVANRTGNERGRPNPVAKKVKATPTDNALAQAFARARLK | soluble
MGKEKVHINIVVIGHVDSGKSTTTGHLIYKCGGIDKRTIEKFEKEAQEMGKGSFKYAWVLDKLKAERERGITIDIALWKFETAKYYITIIDAPGHRDFIKNMITGTSQADCAVLVVACNKMDSTEPPFSEARFTEITNEVSGFIKKIGYNPKAVPFVPISGFNGDNMLEVSSNMPWFKGWAVERKEGNASGKTLLEALDSIIPPQRPTDRPLRLPLQDVYKIGGIGTVPVGRVETGIIKPGMVVTFAPQNVTTEVKSVEMHHESLPEAVPGDNVGFNVKNVSVKDIRRGSVCSDSKQDPAKEARTFHAQVIIMNHPGQISNGYTPVLDCHTAHIACKFNELKEKVDRRTGKKVEDFPKFLKSGDAGIVELIPTKPLCVESFTDYAPLGRFAVRDMRQTVAVGVIKSVEKSDGSSGKVTKSAQKAAPKKK | not soluble
MPQEKMARLYNLNYTIASQVNPHVVPFMQSDASRYRKDILSWPQRILRRQGKVISLGIMDFTRERLGNVPPVRRLLDHGYGIVGQRYYGDVNIIAPFNLRQYAYMLQNPRPHLFKLLQQQGERATWPKISAIETHARIGKTIQHCIEVLDYQKNRYIQAEKASALEHHHHHH | not soluble
IGKVKLSARGTFTYARNKIVEYDELPQRYPWMAQTGMRINENYLYIAERLYTKEDFIVSKNGSGIETYTLRSELPQSTLGGLLGPGDIKYKDINGDGIIDSYDKVRGVGHPKVPEIVYGFGLNIEYKGFYASAFFQGAGNCSVLLGGNTPEGWFPFSWGVDQSNYRTFALDRWTEKNPSQNVLMPRLHKDNTNAANNSVASTWWLRNGGFLRLKNVELGYQLPKKLLSKINLQAARIYLMGYNIALWDDLKYFDPEAGNANGGNTYPKARTFTLGIDFTF | not soluble
MAAFMEEALVEARRARDAGEVPVGCVFVHGDKVVARGGNEVNVHRNATRHAEFICIDAILASCRERRLPARQLFSEITVVVTVEPCIMCSAALHTLGVKEIIYGCENDRFGGKTVVDVAAVVGHRIEITGGVRADEAMALLKDFYKGDNPAAPPQAKKKKLEHHHHHH | soluble
MRIHDIDPDNRPRERFLRSGKESLSPAELLALILRSGTAGLNIIDTCNKLISEHGLERLADLSIQELQKTPGIGEAKAMQIAAIFELQRRLHFARNMNLKVKGARDVFEYMKGRIPDETKEHLFVLFLSTKNQILRHETITIGTLTASLIHPREIFKAAIRESAHSIILVHNHPSGDVQPSNADKQVTSILKKAGDLLQIELLDHVIVGNNDWFSFRDHALL | not soluble
MNRVKYTIKCTILQGKIKERLIKNIHLNEMNLRNWSTLKWSTRV | not soluble
MGSDKIHHHHHHMKISCKNVGVILPIFNSSHRSFKKTFLQAASGGRIGSSNTGIIEVEALKKIDFTLTEGNRLALIGHNGSGKTTLLRVLAGAYKPTSGKYECIGRVTSLIDPMMGMDGELTGLENIKLRGLFLGLSKNEIKNITEDVIEFSELGDFIKIPVRTYSSGMVLRLGFSISTAINPEILLMDEWMSVGDSDFKRKAEMRLNSFISKAGIMVMATHDDELAKSVCNKFIRLEHGEIVSKGGF | not soluble
MGHHHHHHSHMASETHNVKKRNFCNKIEDHFIDLPRKKISNFTNKNMKEVKKSPKQLAAYINRTVGQTVKSPDKLRKVIYRRKKVHHPFPNPCYRKKQSPGSGGCDMANKENELACAGHLPEKLHHDSRTYLVNSSDSGSSQTESPSSKYSGFFSEVSQDHETMAQVLFSRNMRLNVALTFWRKRSISELVAYLLRIEDLGVVVDCLPVLTNCLQEEKQYISLGCCVDLLPLVKSLLKSKFEEYVIVGLNWLQAVIKRWWSELSSKTEIINDGNIQILKQQLSGLWEQENHLTLVPGYTGNIAKDVDAYLLQLH | not soluble
MAELRSFIFIDRLQPQTMSYLGTWIKGALPRANMAAQIIEVAPGLDIEGVTDVALKHAEVKAGILVVERQFGYLEFHGETGAVKAAADAALDYLGGDPDAAVRPEILASRIISSIDHQHAFLINRNKIGSMVLPGESLFVLEVAPASYAILATNEAEKAADVKVVDFRMIGATGRVYLSGTEADVRQAADAARDALAVLQGA | soluble
MGSDKIHHHHHHMSSADLLAPYRGPLTVEQVATGMNAATANARRLAQDARLLLANKRWPTAASLAALSIEESGKVVILRRFVTANTDDIKRLWKEYRTHTKKNINWILPELVAKGARRLEDFKPIVDSASDHPDILDAMKQIGFYTDCLGKTNWSRPTEVVDETLAKNLVNAAEVLSPDRNISVRELELWAEHMGPVWNKNLDWMKQALVNWYGAMQAEGLMPAGSNKMQAFVKEGLATDQAKQIGREV | not soluble
MSTYSSPFSRLLHPFSSPPLRPHQDSTTRQTVFIYSSPPVNSSMATDNVRLERMEIGMQLLLLRMAEKDGEAEKLARAELITEANLGGQGETTQLNPLVPVSKATAEKLSNELDEVGRNRTARWSKSGRTCVVS | not soluble
MSFLSIPINEKSLSFIKNNFQAQIQALEQFYPIIKNALNLGLNPSSIKFGGGTALSMYYFQHRLSFDMDLFVNDAQCLGFFSPKLWIDNCSHFDSTRYIDQHNHIGVTNKDNIKIDVLVDYASNEGYVDNSKKIFAFDIYIESLENIIAKKITFRKTDNKTRDIFDIAVALHNDNNLFDKLLSSQKITKQDLLTLQNSLQELDKKRYSIEIDMVEPISHYKDLSLSAYDFLIDKIDQIKTATYSNSHDNADDLDNSNEYTPTPKRRR | not soluble
MNINIVTIGKLKEKYLKQGIEEYTKRLSAYAKIDIIELPDEKAPENLSDQDMKIIKDKEGDRILSKISPDAHVIALAIEGKMKTSEELADTIDKLATYGKSKVTFVIGGSLGLSDTVMKRADEKLSFSKMTFPHQLMRLILVEQIYRAFRINRGEPYHKLEHHHHHH | soluble
VETASLDVYAKYVLRSICQQEWVGERCLKSLCEDSNDLQDPVLSSAQAQRLMQLICYPHRLLDNEDGENPQRQRIKRILQNLDQWTMRQSSLELQLMIKQTPNNEMNSLLENIAKATIEVFQRSAETGSSSGSTASNMPSSSKTKPVLSSLERSGVWLVAPLIAKLPTSVQGHVLKAAGEELEKGQHLGSSSRKERDRQKQKSMSLLSQQPFLSLVLTCLKGQDEQREGLLTSLYSQVHQIVN | not soluble
LGSGTTEDVSDLPVEEQLRRLQEERTCKVCMDKEVSIVFIPCGHLVVCKDCAPSLRKCPICRSTIKGTVRTFLS | soluble
MKVIAFVGKHNVGKTTLIERLIPKLKEKGYRVCYLKHDPKGHGVTDKEGSDTHRISKLVEKLALLSPNRVTYWEWGEFKPLEIVKRFFSDCDIVILEGFKWEEEIPKISVGKVDAKNVILTVDRETPLEDIIKVIESLEDMV | soluble
MMDESLCGGLPPEICEQLSVEEQIIKIRLEKRRFGREVTIIEGINEKEFNLKKLASTLKSRLATGGTAKNGRIELQGDHRHRVKKILVELGFPEENITIID | soluble
